{"source": "patent US20250163186A1", "about": "(PHYLAXIS BIOSCIENCE, published 2025)", "binders": {"B1": {"name": "cx10710, comprising IgG1 SELF Fc (antibody, V domains shown)", "VH": "QVQLQESGPGLVKPSETLSLTCAVSGYSITSGYSWNWIRQPPGKKLEWIGSITYDGSSNYNPSLKSRVTISRDTSKNQFSLKLSSVTAADTAVYYCARGSHYFGHWHFAVWGAGTLVTVSS", "VL": "DIQLTQSPSSLSASVGDRVTITCRASQSVDYDGDSYMNWYQQKPGQPPKLLIYAASYLGSEIPARFSGSGSGTDFTLTISSLQPEDFATYYCQQSHEDPYTFGAGTKLEIKR", "notes": "Conventional full length anti-IgE antibody with IgG1 SELF Fc; also called conventional antibody comparator; 710 (a derivative of Omalizumab); copies: 2 + 2"}, "B2": {"name": "hzB10v40-IgG1 DSELF Fc region (cx13032) (Fc fusion)", "chain": "EVQLLESGGGEVQPGGSLRLSCVASGLTFSSYNMGWLRQAPGKEREFVGLSGSSSTSTYYAESVKGRFTISRDNAKNTVYLQMTSLRAEDTAVYYCAARRLLSTYWSDRSWDFWGQGTLVTVEPGGGGDKTHTCPPCPAPELLDGPSVFLFPPKPKDTLMISRTPEVTCVVVDVEHEDPEVKFNWYVDGVEVHNAKTKPREEQYNSTYRVVSVLTVLHQDWLNGKEYKCKVSNKAFPAPIEKTISKAKGQPREPQVYTLPPSREEMTKNQVSLTCLVKGFYPSDIAVEWESNGQPENNYKTTPPVLDSDGSFFLYSKLTVDKSRWQQGNVFSCSVMHEALHNHYTQKSLSLSPGK", "notes": "hzB10v40 VHH + GGGG linker + IgG1 DSELF Fc; described as bivalent; also called hzB10v40-DSELF; hzB10v40-IgG DSELF Fc"}}, "key": {"[1]": {"biological_target": "recombinant human anti-hapten dinitrophenol (DNP) IgE (rhIgE) (human, UniProt P01854-1 1-428)", "sequence (P01854 other isoform, or with tags, fused parts or gaps)": "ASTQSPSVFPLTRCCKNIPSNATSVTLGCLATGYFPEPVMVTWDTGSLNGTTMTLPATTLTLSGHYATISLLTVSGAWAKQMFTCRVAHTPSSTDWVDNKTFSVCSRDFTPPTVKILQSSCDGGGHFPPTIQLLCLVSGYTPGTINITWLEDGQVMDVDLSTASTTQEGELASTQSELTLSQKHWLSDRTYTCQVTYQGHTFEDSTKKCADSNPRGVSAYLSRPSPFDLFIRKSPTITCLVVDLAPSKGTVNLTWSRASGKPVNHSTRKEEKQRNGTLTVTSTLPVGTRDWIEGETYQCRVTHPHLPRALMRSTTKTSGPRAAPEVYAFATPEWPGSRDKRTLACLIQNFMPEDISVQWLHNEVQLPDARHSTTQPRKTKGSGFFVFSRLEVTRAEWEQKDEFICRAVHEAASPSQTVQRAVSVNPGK", "assay": "cell-based or functional assay"}, "[2]": {"biological_target": "T1, human IgE (human, UniProt P01854 1-428)", "T1 construct": "written under the same molecule; also called IgE (Abcam ab65866); soluble IgE", "T1 sequence (P01854 other isoform, or with tags, fused parts or gaps limits assumed, form in doubt)": "as the sequence (P01854 other isoform, or with tags, fused parts or gaps) above", "assay": "ELISA, plate-coated IgE"}, "[3]": {"biological_target": "T1, human IgE", "assay": "ELISA, plate-coated IgE", "remark": "listed apart in the source"}, "[4]": {"biological_target": "T1, human IgE", "assay": "ELISA, human IgE coated", "procedure": "(§1) The following day, plates were blocked with 1% BSA in PBS for 30 min-1 hour. […] Afterwards, the plates were PBST washed with the plate washer and detected with Peroxidase AffiniPure Donkey Anti-Human IgG, Fcγ fragment specific secondary detection antibody. Room temperature TMB was added and OD650 was measured using the Emax plate reader. […] Room temperature TMB was added and OD650 was measured using the Emax plate reader. The data was plotted and analyzed using GraphPad Prism analysis software."}, "[5]": {"biological_target": "T1, human IgE", "assay": "ELISA, human IgE coated", "procedure": "as §1", "remark": "listed apart in the source"}, "[6]": {"biological_target": "human IgG2 (Athensresearch, 16-16-090707-2) (human, UniProt P01859-1 1-326 = IgG part)", "assay": "ELISA, human IgG2 coated"}, "[7]": {"biological_target": "human IgE pre-complexed to FCER1A on the surface of human mast cells (human, UniProt P01854-1 1-428)", "sequence (P01854 other isoform, or with tags, fused parts or gaps)": "as above", "assay": "flow cytometry on IgE-loaded human mast cells"}, "[8]": {"biological_target": "T2, recombinant human FCER1A-His (ACRO FCA-H5228) (human, UniProt P12319 26-205)", "T2 construct": "Bought protein; also called FceRIA; IgE receptor", "T2 sequence": "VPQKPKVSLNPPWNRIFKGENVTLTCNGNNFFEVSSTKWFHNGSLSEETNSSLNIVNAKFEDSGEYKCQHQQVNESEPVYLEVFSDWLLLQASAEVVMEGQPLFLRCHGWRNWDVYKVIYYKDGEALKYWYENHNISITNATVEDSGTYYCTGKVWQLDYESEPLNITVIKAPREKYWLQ", "assay": "SPR, antibody alone injected over captured FCER1A", "procedure": "(§2) All experiments were done using a Biacore T200 instrument with a CM5 chip at 25° C., Flow Cell (FC) 1 was used as the reference for FC2, and FC3 for FC4.\n(§3) Anti-His antibody (1 mg/ml stock) was diluted (1:100 dilution, 0.01 mg/ml diluted concentration) in 10 mM sodium acetate buffer at pH 4.5 and immobilized onto FCs 1 and 2 to a level of ˜14000 RU, using the standard amine coupling chemistry. […] FCER1A (0.4 mg/ml stock concentration) was diluted ([…], ˜0.004 mg/ml diluted concentration) in PBS-P captured onto FC2 to levels of ˜130 RU. PBS-P was used as the capture running buffer. Overnight kinetics were performed for all analytes in the presence of PBS-P. The flow rate of all analyte solutions was maintained at 50 μL/min. The contact and dissociation times used were 120 seconds and 300 seconds, respectively. Glycine pH 1.5 was injected for 20 seconds for surface regeneration. This regeneration condition takes away all captured FCER1A. Therefore, fresh FCER1A was captured in the beginning of each injection cycle. […] All analytes were injected in duplicate. […] Sensorgrams from the overnight kinetics were plotted for further evaluation."}, "[9]": {"biological_target": "T3, human IgE pre-complexed to FceRII/CD23 on the surface of RPMI 8866 cells (human, UniProt P01854 1-428; P06734 1-321)", "T3 construct": "also called IgE:CD23 complexes; IgE in complex with CD23", "T3 sequence (P01854 other isoform, or with tags, fused parts or gaps, chain 1 of 2)": "as the sequence (P01854 other isoform, or with tags, fused parts or gaps) above", "T3 sequence (P06734 whole entry, chain 2 of 2)": "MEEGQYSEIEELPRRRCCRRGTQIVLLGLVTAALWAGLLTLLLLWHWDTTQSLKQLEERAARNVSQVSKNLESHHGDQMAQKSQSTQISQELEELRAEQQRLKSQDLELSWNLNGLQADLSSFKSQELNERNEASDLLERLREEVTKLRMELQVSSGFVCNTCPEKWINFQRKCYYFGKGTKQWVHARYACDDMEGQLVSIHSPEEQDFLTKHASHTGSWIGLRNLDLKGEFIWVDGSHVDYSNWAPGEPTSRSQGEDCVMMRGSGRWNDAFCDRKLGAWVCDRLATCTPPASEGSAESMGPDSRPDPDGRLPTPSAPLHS", "assay": "flow cytometry, IgE-loaded RPMI 8866 cells", "procedure": "The washed cells were diluted to 0.8×10⁶ cells/mL. 50 μL of this cell suspension was then transferred to wells of a round-bottom 96-well assay plate (40 k cells/well). 50 μL of titrated test articles (diluted to 1 μM and titrated across 1:3 in FACS buffer) were added to the RPMI 8866 cells which produced a 2-fold dilution of the antibody concentrations from the titration series. The final starting concentration was 500 nM with a total of 11 points in the titration. […] The cells were incubated with secondary detection antibodies for 20 minutes then washed once, resuspended in 60 μL of FACS Buffer, and analyzed on a NovoCyte 3000 flow cytometer (ACEA Biosciences, Inc.)."}, "[10]": {"biological_target": "T1, human IgE", "assay": "ELISA, plate-coated IgE, apparent Kd (one site fit)", "source_text": "The data was plotted and analyzed using GraphPad Prism analysis software."}, "[11]": {"biological_target": "T1, human IgE", "assay": "ELISA, plate-coated IgE, apparent Kd (one site fit)", "remark": "listed apart in the source"}, "[12]": {"biological_target": "T4, chimeric cynomolgus monkey IgE (cynomolgus monkey (Macaca fascicularis))", "T4 construct": "domain: CH1-4 constant domains; Generated in house in place of commercial cynomolgus IgE; also called cyno IgE", "assay": "ELISA, plate-coated cynomolgus IgE, apparent Kd (one site fit)"}, "[13]": {"biological_target": "T1, human IgE", "assay": "SPR, blocks binding of 5 nM IgE to captured FCER1A", "procedure": "as §2, §3"}, "[14]": {"biological_target": "T1, human IgE", "assay": "ELISA, blocks binding of 5 nM IgE to coated FCER1A", "procedure": "as §1"}, "[15]": {"biological_target": "T1, human IgE", "assay": "ELISA, blocks binding of 5 nM IgE to coated FCER1A", "procedure": "as §1", "remark": "listed apart in the source"}, "[16]": {"biological_target": "T1, human IgE", "assay": "SPR, blocks binding of 5 nM IgE to captured FCER1A", "procedure": "(§4) All experiments were done using a Biacore T200 instrument with a CM5 chip at 37° C. except immobilization of Protein L, which was done at 25° C.\nSensorgrams from the overnight kinetics were plotted for further evaluation.", "remark": "listed apart in the source"}, "[17]": {"biological_target": "T1, human IgE", "assay": "ELISA, blocks binding of 5 nM IgE to coated FCER2/CD23", "procedure": "as §1"}, "[18]": {"biological_target": "human IgM (Novus, NBP1-97056) (human, UniProt P01871-1 1-453)", "sequence (P01871 other isoform, or with tags, fused parts or gaps)": "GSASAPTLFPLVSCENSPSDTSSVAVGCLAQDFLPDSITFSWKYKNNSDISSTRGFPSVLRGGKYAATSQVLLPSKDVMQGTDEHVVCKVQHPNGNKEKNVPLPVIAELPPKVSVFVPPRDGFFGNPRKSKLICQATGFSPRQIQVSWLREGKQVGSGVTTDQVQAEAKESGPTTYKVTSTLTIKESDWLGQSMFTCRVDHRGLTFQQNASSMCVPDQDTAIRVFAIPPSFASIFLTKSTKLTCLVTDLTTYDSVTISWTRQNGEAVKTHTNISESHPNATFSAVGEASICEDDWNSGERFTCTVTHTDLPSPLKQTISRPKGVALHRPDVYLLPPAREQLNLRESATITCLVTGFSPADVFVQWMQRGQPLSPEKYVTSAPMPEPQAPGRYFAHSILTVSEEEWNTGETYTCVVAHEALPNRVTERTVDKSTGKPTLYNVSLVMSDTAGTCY", "assay": "ELISA, plate-coated immunoglobulin"}, "[19]": {"biological_target": "T1, human IgE", "assay": "SPR (Biacore T200, 37 C), IgE low density (~14 RU) on protein L, 1:1 fit", "procedure": "as §4\n(§5) For this study Flow Cell (FC) 1 was used as the reference for FC2, FC3 and FC4. Protein L (15 mg/ml stock concentration) was diluted (1:50 dilution, 0.3 mg/ml diluted concentration) in 10 mM sodium acetate buffer at pH 4.5 and immobilized onto all FCs to a level of ˜14000 RU, using the standard amine coupling chemistry. HBS-P (10 mM Hepes, pH 7.4, 150 mM NaCl, 0.05% v/v surfactant P20) was used as the immobilization running buffer. […] HBS-P was used as the capture running buffer. Overnight kinetics were performed for all analytes in the presence of HBS-P. The flow rate of all analyte solutions was maintained at 50 μL/min. The contact and dissociation times used were 120 seconds and 600 seconds, respectively. Glycine pH 1.5 was injected for 20 seconds for surface regeneration. This regeneration condition takes away all captured ligand. Therefore, fresh ligand solution was captured in the beginning of each injection cycle. Injected analyte concentrations are from 80 nM to 0.01953 nM (four-fold dilutions). All analytes were injected in duplicate."}, "[20]": {"biological_target": "T1, human IgE", "assay": "SPR (Biacore T200, 37 C), IgE high density (~1400 RU) on protein L, 1:1 fit", "procedure": "as §4, §5"}, "[21]": {"biological_target": "T1, human IgE", "assay": "SPR (Biacore T200, 37 C), IgE medium density (~114 RU) on protein L, 1:1 fit", "procedure": "as §4, §5"}, "[22]": {"biological_target": "T1, human IgE", "assay": "flow cytometry, blocks binding of 5 nM IgE to FCER1A on human mast cells"}}, "note": "Like-named read-outs stand apart in the source and are kept apart here.", "data": [{"binder": "B1", "values": [{"measurement": "Activation IC50 (nM), CD63 on mast cells", "setting": "[1]", "value": 1.93, "unit": "nM"}, {"measurement": "Bmax (OD 650 nm)", "setting": "[2]", "value": 0.814, "unit": "OD 650 nm"}, {"measurement": "Bmax (OD 650 nm)", "setting": "[3]", "value": 0.946, "unit": "OD 650 nm"}, {"measurement": "Bmax", "setting": "[4]", "value": 0.95, "unit": "OD 650"}, {"measurement": "Kd", "setting": "[4]", "value": 0.0585, "unit": "nM"}, {"measurement": "Bmax", "setting": "[5]", "value": 1.2, "unit": "OD 650"}, {"measurement": "Kd", "setting": "[5]", "value": 0.123, "unit": "nM"}, {"measurement": "binding result", "setting": "[6]", "value": "no binding (tested: 250 nM)"}, {"measurement": "binding result", "setting": "[7]", "value": "no binding (tested: titrated from 1000 nM)"}, {"measurement": "binding result", "setting": "[8]", "value": "no binding (tested: 200 nM)"}, {"measurement": "Bmax", "setting": "[9]", "value": 15000, "unit": "Mean APC-A"}, {"measurement": "Kd", "setting": "[9]", "value": 6.17, "unit": "nM"}, {"measurement": "Kd", "setting": "[10]", "value": 0.102, "unit": "nM"}, {"measurement": "Kd", "setting": "[11]", "value": 0.127, "unit": "nM"}, {"measurement": "Kd", "setting": "[12]", "value": 0.288, "unit": "nM"}, {"measurement": "IC50", "setting": "[13]", "value": "~2.1", "unit": "nM"}, {"measurement": "IC50", "setting": "[14]", "value": 5.59, "unit": "nM"}, {"measurement": "IC50", "setting": "[15]", "value": 2.71, "unit": "nM"}, {"measurement": "IC50", "setting": "[16]", "value": "~3.2", "unit": "nM"}, {"measurement": "IC50", "setting": "[17]", "value": 0.604, "unit": "nM"}]}, {"binder": "B2", "values": [{"measurement": "Activation IC50 (nM), CD63 on mast cells", "setting": "[1]", "value": 3.09, "unit": "nM"}, {"measurement": "Bmax (OD 650 nm)", "setting": "[3]", "value": 0.873, "unit": "OD 650 nm"}, {"measurement": "binding result", "setting": "[18]", "value": "no binding"}, {"measurement": "Bmax", "setting": "[4]", "value": 0.808, "unit": "OD 650"}, {"measurement": "Kd", "setting": "[4]", "value": 0.11, "unit": "nM"}, {"measurement": "binding result", "setting": "[7]", "value": "no binding (tested: titrated from 1000 nM)"}, {"measurement": "Kd", "setting": "[11]", "value": 0.266, "unit": "nM"}, {"measurement": "IC50", "setting": "[14]", "value": 7.63, "unit": "nM"}, {"measurement": "IC50", "setting": "[16]", "value": "~3.4", "unit": "nM"}, {"measurement": "Kd", "setting": "[19]", "value": 0.6, "unit": "nM"}, {"measurement": "koff", "setting": "[19]", "value": 0.000449, "unit": "s⁻¹"}, {"measurement": "kon", "setting": "[19]", "value": 422000, "unit": "M⁻¹ s⁻¹"}, {"measurement": "Kd", "setting": "[20]", "value": 1.1, "unit": "nM"}, {"measurement": "koff", "setting": "[20]", "value": 0.000258, "unit": "s⁻¹"}, {"measurement": "kon", "setting": "[20]", "value": 242000, "unit": "M⁻¹ s⁻¹"}, {"measurement": "Kd", "setting": "[21]", "value": 0.6, "unit": "nM"}, {"measurement": "koff", "setting": "[21]", "value": 0.000207, "unit": "s⁻¹"}, {"measurement": "kon", "setting": "[21]", "value": 373000, "unit": "M⁻¹ s⁻¹"}, {"measurement": "IC50", "setting": "[22]", "value": 0.61, "unit": "nM"}]}]}
